The source of these data is patent US20170306031A1 (NGM BIOPHARMACEUTICALS, published 2017).

The target of assay [1] is T1, human GFRAL (analyte in Biacore assays) (human, UniProt Q6UXV0 19-351, limits assumed).
T1 construct: injected in solution over captured antibody; also called hGFRAL
T1 sequence: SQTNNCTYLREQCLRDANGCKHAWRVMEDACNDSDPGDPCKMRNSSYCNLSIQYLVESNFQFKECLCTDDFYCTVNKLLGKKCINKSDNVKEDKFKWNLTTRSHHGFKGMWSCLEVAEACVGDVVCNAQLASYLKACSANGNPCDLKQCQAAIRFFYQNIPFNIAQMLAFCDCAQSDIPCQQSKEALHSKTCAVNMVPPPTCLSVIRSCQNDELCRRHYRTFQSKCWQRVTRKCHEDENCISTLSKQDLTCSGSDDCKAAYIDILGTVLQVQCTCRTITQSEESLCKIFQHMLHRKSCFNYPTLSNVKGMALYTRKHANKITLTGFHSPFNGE
Briefly: Biacore SPR, antibody captured, GFRAL injected. Here is the method:
(§1) In addition, the binding affinity of antibodies to human and mouse GFRAL were measured. For example, antibodies were rank ordered based on their binding affinity to human GFRAL and mouse GFRAL by low resolution KD measurement by Biacore. Briefly, an anti-mouse Fc antibody (Sigma-Aldrich, St. Louis, Mo.) was immobilized on all four flow cells of a CM5 chip using amine coupling reagents (GE Healthcare LifeSciences, Piscataway, N.J.). Purified antibodies were captured (˜100 RUs) on flow cells 2, 3 and 4 using flow cell 1 as a reference. This was followed by injection of human or mouse GFRAL (25 nM in PBS-P buffer) at a flow rate of 70 μL/m in and monitoring the binding kinetics at 25° C.
(§2) Binding affinity measurements were also made in additional Biacore based assays. For example, equilibrium dissociation constant (KD) measurements were carried out with purified antibodies to evaluate their binding to human GFRAL or mouse GFRAL. As mentioned above, anti-mouse Fc antibody (Sigma-Aldrich, St. Louis, Mo.) was immobilized on all four flow cells of a CM5 chip using amine coupling reagents (GE Healthcare LifeSciences, Piscataway, N.J.). Purified antibodies were captured (˜100 RUs) on flow cells 2, 3 and 4 using flow cell 1 as a reference. This was followed by injection of human or mouse GFRAL in PBS-P buffer) at a flow rate of 70 μL/min and the binding kinetics were evaluated at 25° C.
(Surface plasmon resonance follows binding to a sensor surface in real time, without labels.)

In assay [2] the target is T2, mouse GFRAL (analyte in Biacore assays) (mouse, UniProt Q6SJE0 20-349, limits assumed).
T2 construct: injected in solution over captured antibody
T2 sequence: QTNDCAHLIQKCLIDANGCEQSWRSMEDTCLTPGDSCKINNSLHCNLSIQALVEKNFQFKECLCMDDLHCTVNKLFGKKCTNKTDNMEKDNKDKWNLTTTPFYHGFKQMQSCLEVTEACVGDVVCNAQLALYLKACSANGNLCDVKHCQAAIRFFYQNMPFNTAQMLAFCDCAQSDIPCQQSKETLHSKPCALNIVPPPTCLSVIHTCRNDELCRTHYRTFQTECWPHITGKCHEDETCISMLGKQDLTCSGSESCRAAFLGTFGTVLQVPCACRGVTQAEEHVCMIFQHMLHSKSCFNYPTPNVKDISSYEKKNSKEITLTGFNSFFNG
Briefly: Biacore SPR, antibody captured, GFRAL injected. Here is the method:
as §1, §2

In assay [3] the target is T3, human GFRAL expressed on cells (human, UniProt Q6UXV0 20-394).
T3 sequence: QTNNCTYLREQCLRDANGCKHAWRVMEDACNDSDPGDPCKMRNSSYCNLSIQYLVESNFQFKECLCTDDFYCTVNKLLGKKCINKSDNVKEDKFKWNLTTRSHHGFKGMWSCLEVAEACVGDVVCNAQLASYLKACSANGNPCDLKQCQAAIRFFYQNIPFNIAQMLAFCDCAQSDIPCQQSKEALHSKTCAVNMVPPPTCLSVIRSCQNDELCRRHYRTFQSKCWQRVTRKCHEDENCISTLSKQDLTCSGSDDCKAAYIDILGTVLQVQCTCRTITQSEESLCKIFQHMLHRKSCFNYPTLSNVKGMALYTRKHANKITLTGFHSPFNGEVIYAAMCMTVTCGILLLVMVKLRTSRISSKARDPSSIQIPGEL
Briefly: cell-based or functional assay.

Assay [4] concerns the target T3, human GFRAL expressed on cells. Briefly: cell-based or functional assay. The source holds these as a separate data set.
Assay [5] has as its target T1, human GFRAL (analyte in Biacore assays). Put plainly: Biacore SPR, antibody captured, human GFRAL injected. As to the method: Exemplary humanized anti-GFRAL antibodies identified in Example 6 were assayed for their binding affinity to human GFRAL. Binding affinity measurements were made in Biacore based assays. For example, equilibrium dissociation constant (KD) measurements were carried out with purified antibodies to evaluate their binding to human GFRAL. Using methods described in Example II, anti-mouse Fc antibody (Sigma-Aldrich, St. Louis, Mo.) was immobilized on all four flow cells of a CM5 chip using amine coupling reagents (GE Healthcare LifeSciences, Piscataway, N.J.). Purified humanized anti-GFRAL antibodies were captured (˜100 RUs) on flow cells 2, 3 and 4 using flow cell 1 as a reference. This was followed by injection of human GFRAL in PBS-P buffer) at a flow rate of 70 μL/min and the binding kinetics were evaluated at 25° C.

Broadly, the Kd is the free concentration of one partner at which half of the binding sites on the other are occupied at equilibrium, for simple one-to-one binding. Read a high Kd as a looser complex. As usually defined, the koff is a measure of how fast the partners let go of each other.

B1: antibody designated 1A3 (antibody, V domains shown)
VH: EVQLQQSGPELVKPGASVKISCKASGFTFTDYYMNWVKQSHGKSLEWIGDIIPNNGVTSYNQKFKGKATLTVDKSSSTAYMELRSLTSEDSAVYYCAREWLLRGMDYWGQGTSVTVSS
VL: DIVMTQAAFSNPVTLGTSASISCRSSKSLLHSNGITYLYWYLQKPGQSPQLLIYQMSNLASGVPDRFSSSGSGTDFTLRISRVEAEDVGVYYCAQHLELTWTFGGGTKLEIK
notes: mouse hybridoma monoclonal
For B1, in assay [1], the Kd was 0.11 nM and the koff is 7.57e-05 s⁻¹. In assay [2], the binding result is recorded as “no binding”.

B2: antibody designated P1H8 (antibody, V domains shown)
VH: EVQLQQSGPELVKPGASVKISCKASGYTFTDYYMNWVKQSHGKSLEWIGDINPNNGGTTYNQKFKGKATLTVDKSSSTAYMELRSLTSEDSAVYYCARQGPWYFDVWGTGTTVTVSS
VL: DVLMTQTPLSLPVSLGDQASISCRSSQTIVHSNGYTYLEWYLQKPGQSPKLLIYKVSNRFSGVPDRFSGSGSGTDFTLKISRVEAEDLGVYYCFQGSHVPWTFGGGTKLEIK
notes: mouse hybridoma monoclonal
B2: in assay [1], the Kd worked out at 0.21 nM and the koff amounted to 8.99e-05 s⁻¹. In assay [2], the binding result is “no binding”.

B3: antibody designated 1B3 (antibody, V domains shown)
VH: QVHLQQPGAELVKPGASVKLSCKASGFTFTGYNINWVRLRPEQGLEWIGWIFPGDDNAKYNEKFKGKATLTTDKSSNTAYMQLSRLTSEDSAVYFCARTPVLSNYFDYWGQGTTLTVSS
VL: DIQMTQSPSSLSASLGGKVTITCKASQDISKYISWYQHKPGKSPRLLIHYTSTLQPGIPSRFSGSGSGRDYSFSISNLEPEDIATYYCLQYDNLYTFGGGTKLEIK
notes: mouse hybridoma monoclonal
Take B3: the “IC50, ELK1-luciferase reporter (hGFRAL/hRET)” value (shortened to “IC50 … (hGFRAL/hRET)”) in assay [3] was 4.14 nM. Moreover, in assay [4], the “IC50, ERK phosphorylation in U2OS hGFRAL/hRET cells” value (shortened to “IC50 … in U2OS hGFRAL/hRET cells”) was 0.57 nM. The molecule further displayed a Kd in assay [1] of less than 0.1 nM. Also, in assay [2], binding was put at a Kd of 4.4 nM and the koff stood at 0.00107 s⁻¹.

B4: antibody designated P8G4 (antibody, V domains shown)
VH: QVQLKQSGPGLVQPSQSLSITCTVSGFSLTSYGVHWVRQSPGKGLDWLGVLWSGGSTDYNAAFISRLSISKDNSKSQVFFKMNSLQADDTAIYYCARNFGDYWGQGTSVTVSS
VL: QIVLTQSPAIMSASPGEKVTMTCSASSRVSYMHWYQQKSGTSPKRWIYDTSKLASGVPARFSGSGSGTSYSLTISSMEAEDAATYYCQQWNNNPPTFGAGTTLELK
notes: mouse hybridoma monoclonal
Regarding B4, in assay [1], the Kd stood at 0.21 nM and the koff came out at 0.000276 s⁻¹. In assay [2], the binding result is listed as “no binding”.

B5: antibody designated P1B6 (antibody, V domains shown)
VH: EVQLQQSGPELVKPGASVKMSCKASGYTFTDYYMNWVKQTHGKSLEWIGDINPNNGGPIYNQKFKGKATLTVDKSSSTAYMELRSLTSEDSAVYYCARSDSAWFTYWGQGTLVTVSA
VL: QIVLTQSPAIMSASPGEKVTMTCSASSSVSYMYWYQQKPGSSPRLLIYDTSNLASGVPVRFSGSGSGTFYSITISRMEAEDAATYYCQQWNSYPPTFGGGTKLEIK
notes: mouse hybridoma monoclonal
Turning to B5, in assay [1], the Kd worked out at 0.14 nM and the koff worked out at 9.72e-05 s⁻¹. Moreover, the binding result in assay [2] is recorded as “no binding”.

B6: antibody designated 6N16 (antibody, V domains shown)
VH: QVQLQQSGSELVKPGTSMKLSCKASGYTFTSYNINWVRLRPEQGLEWIGWIFPGDDSIKYNENFRGKATLTTDKSSSTAYMHLSRLTSDDSAVYFCARSGIFYGNNFAYWGQGTLVTVSA
VL: DVVMTQAPLILSVTIGQPASISCKSSQSLLDGDGETYLSWLLQRPGQSPKRLIYLVSKLDSGVPDRFTGSGSGTDFTLKISRVEAEDLGVYYCCQSTHFPLTFGAGTKLELK
notes: mouse hybridoma monoclonal
Turning to B6, in assay [3], the “IC50 … (hGFRAL/hRET)” value was determined as 1.62 nM. In addition, in assay [4], the “IC50 … in U2OS hGFRAL/hRET cells” value worked out at 0.27 nM. In assay [1], this molecule had a Kd of 0.16 nM and a koff of 9.93e-05 s⁻¹. Further, the binding result in assay [2] is reported as “no binding”.

B7: antibody designated 6G9 (antibody, V domains shown)
VH: QVQLHQPGAELVKPGASVKLSCKTSGYTFTSYWMQWVKQRPGQGLEWIGEIDPSDSYTNYNQKFKGKATLTVDTSSTTAYMQLSSLTSEDSAVYYCARPLDRSAYYFDYWGQGTTLTVSS
VL: DIVLTQSPASLAVSLGQRATISCRASESVDFSGNSFMHWYQQKPGQPPKLLIYRASNLDSGIPARFSGVGSRTDFTLTINPVEADDVATYYCQQSNEDPYTFGGGTKLEIE
notes: mouse hybridoma monoclonal
Regarding B7, in assay [3], the “IC50 … (hGFRAL/hRET)” value was 2.65 nM. Further, in assay [4], the “IC50 … in U2OS hGFRAL/hRET cells” value came out at 0.17 nM. This molecule also displayed a Kd in assay [1] of less than 0.1 nM. Moreover, the binding result in assay [2] is “no binding”.

B8: antibody designated 2B11 (antibody, V domains shown)
VH: DVQLQESGPGLVKPSQSLSLTCSVTGYSITSGYYWNWIRQFPGNKLEWMGHIANDGSNYYNPFLKHRVSITRDTSKNQFFLKLNSVTIQDTATYYCARGGSYFDYVDYWGQGTTLTVSS
VL: DIQMTQTTSSLSASLGDRVTINCRASQDISNYLNWYQQKPDGTVKLLIYYTSRLHSGVPSRFSGSGSGTDYSLTITNLEQEDIATYFCQQGNTLPFTFGSGTKLEIK
notes: mouse hybridoma monoclonal
With B8, the “IC50 … (hGFRAL/hRET)” value in assay [3] is 7.9 nM. In addition, the “IC50 … in U2OS hGFRAL/hRET cells” value in assay [4] stood at 0.46 nM. Besides, the Kd in assay [1] amounted to 0.1 nM; in assay [2] it was 3.7 nM. Moreover, the results for the koff in assay [1] and in assay [2] were 8.45e-05 s⁻¹ and 0.00144 s⁻¹, respectively.

B9: humanized anti-GFRAL antibody HC-375g/LC-375a (antibody, IgG1, V domains shown)
VH: QVQLVQSGAEVKKPGSSVKVSCKASGYTFTDYYINWVRQAPGQGLEWIARIYPGNGNTYHNEKFKGRATLTADKSTSTAYMELSSLRSEDTAVYYCAREGLYYDYDRYFDYWGQGTLVTVSS
VL: DIVMTQSPDSLAVSLGERATINCRASESVDTYGNSFMHWYQQKPGQPPKLLIYLASNLESGVPDRFSGSGSGTDFTLTISSLQAEDVAVYYCHQNNEDPPAFGGGTKVEIK
notes: humanized 5F12
Molecule B9 displayed a Kd in assay [5] of 0.028 nM.

B10: antibody designated 8C10 (antibody, V domains shown)
VH: QVQLQQSGVELARPGAAVKLSCKASGYTFANYGLTWVKQRTGQGLEWIGEIYPGSGHTHYNEDFKGKATLTADRSSSTAYMELRSLTSEDSAVYFCARRIQLLLPVGGFVYWGQGTLVTVSA
VL: DFVLTQSPATLSVTPGDSVSLSCRASQSISNNLHWYQQKSHESPRLLIKYASQSISGIPSRFSGSGSGTDFTLSINSVETEDFGVYFCQQSNSWPHTFGGGTKLEIK
notes: mouse hybridoma monoclonal
In the case of B10, the “IC50 … (hGFRAL/hRET)” value in assay [3] turned out to be 1.79 nM. Also, the “IC50 … in U2OS hGFRAL/hRET cells” value in assay [4] amounted to 0.28 nM. In assay [1], this molecule displayed a Kd of less than 0.1 nM and a koff of 7.2e-05 s⁻¹.

B11: antibody designated 2I23 (antibody, V domains shown)
VH: QAQLQQSGAELVKPGASVKLSCKASGYSFTSYNIDWVRQRPEQGLEWIGWIFPGDGSTKYNEKFKGQATLTTDKSSSTTYIHLSRLTSEDSAVYFCARSGIYYGSHFVYWGQGTLVTVSA
VL: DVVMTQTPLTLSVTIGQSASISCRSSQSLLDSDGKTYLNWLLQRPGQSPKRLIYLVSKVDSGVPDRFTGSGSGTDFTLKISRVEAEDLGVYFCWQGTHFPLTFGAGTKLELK
notes: mouse hybridoma monoclonal
With B11, in assay [3], the “IC50 … (hGFRAL/hRET)” value is 7.18 nM. Moreover, in assay [1], the Kd is 0.23 nM and the koff came out at 6.77e-05 s⁻¹. The binding result in assay [2] is given as “no binding”.
